# Test results: US5143839A, “Assay of endopeptidases and novel purified bacterial enzyme” (Ramot Ltd., priority 1989, dated 1992)
# B1: bovine kidney neutral endopeptidase 24.11 (Bos taurus) (protein)
# chain: MGRSESQMDITDINTPKPKKKQRWTPLEISLSVLVLLLTIIAVTMIALYATYDDGICKSSECIKSAARLIQNMDATVEPCTDFFKYACGGWLKRNVIPETSSRYSNFDILRDELEVVLKDVLQEPKTEDIIAVQKAKMLYRSCINETAIESRGGEPLLRLLPDIYDWPVALENWEQKYGSSWTAEKSIAQLNSKYGKKVIINFFVGTDDKNSTNHIIHIDQPQLGLPSRDYYECTAAYKEACTAYVDFMISVAKLIRQERGLPIDENQLSLEMNKVMDLEKEIANATTKSEDRNDPMLLYNKMTLAEVQNKFSLEFSGKPFSWSNFTNEIMSTVNINIPHEEEVIVYAPEYLTNLKLILAKYSARDLQNLMSWRFIMDLVSSLSRNYKESRNAFRKALYGTTSETATWRRCANYVNGNMENAVGRLYVEAAFPGDSKHVVEDLIAQIRAVFIQTLDDLTWMDAETKKKAEEKALAIKERIGYPDDIISNDDKLNKEYLELSYQEEEYFENIIQNLKFGQNRQLKKLREKVDKDEWISGAAVVNAFYSSGRNQIVFPAGILQPPFFSAQQPKSLNYGGIGMVIGHEITHGFDDNGRNFNKDGDLVDWWTQQSANNFKDLSQCMVYQYGNFSWDLANGQHLNGINTLGENIADNGGIGQAYRAYQNYVKKHGEEKLLPGLDLNHRQLFFLNFAQVWCGTYRTEYALNSIKTDVHSPGNFRIIGTLQNSPQFSEAFHCRKNSYMNPEKKCRVW
# notes: Endopeptidase 24.11 from bovine kidney was purified by Triton X-100 extraction; from tissue; host or cells: bovine kidney
# B2: Thermolysin (Bacillus thermoproteolyticus) (protein)
# chain: ITGTSTVGVGRGVLGDQKNINTTYSTYYYLQDNTRGNGIFTYDAKYRTTLPGSLWADADNQFFASYDAPAVDAHYYAGVTYDYYKNVHNRLSYDGNNAAIRSSVHYSQGYNNAFWNGSQMVYGDGDGQTFIPLSGGIDVVAHELTHAVTDYTAGLIYQNESGAINEAISDIFGTLVEFYANKNPDWEIGEDVYTPGISGDSLRSMSDPAKYGDPDHYSKRYTGTQDNGGVHINSGIINKAAYLISQGGTHYGVSVVGIGRDKLGKIFYRALTQYLTPTSNFSQLRAAAVQSATDLYGSTSQEVASVKQAFDAVGVK
# Tests used:
# [1] = substrate: CC(C)C[C@H](NC(=O)[C@H](C)NC(=O)[C@H](C)NC(=O)CCC(=O)O)C(=O)Nc1ccc([N+](=O)[O-])cc1; test: Kinetic parameters of hydrolysis of Suc-Ala-Ala-Leu-NH-Np (Lineweaver-Burk); assay type: biochemical, bovine; details: other: (S) range 0.04-4.0 mM, 10 mM CaCl2, pH 7.5, 25° C., enzyme 2.2×10^-9 M
# Procedure: (§1) Neutral endopeptidase and neutral proteinase activities were assayed by the two-stage assay using the synthetic substrate Suc-Ala-Ala-Leu-NH-Np supplemented with Streptomyces griseus aminopeptidase, usually 6-7 μg/ml. Assays were performed in 0.1M NaCl-0.05M Tris.HCl, pH 7.5 at 25° C., unless otherwise stated, with or without 0.01M CaCl2. Assay volume was 1 ml or 2.5 ml when using a Varian Techtron spectrophotometer or 0.2 ml at 23° C. when performed with microplates (Munc Immuno Plate II F) using a Kinetic Microplate Reader (Molecular Devices Corp.). Activity was measured by following the increase in absorbance at 405 nm, due to the release of 4-nitroaniline, E405 =10,600M^-1 cm^-1 [14 ]. Molar concentration of thermolysin was estimated using A280 1% =17.65 [15] and molecular mass of 34,600 Da; molar concentration of bovine kidney neutral endopeptidase by protein determination and molecular mass of 90 kDa, deduced from SDS PAGE. Both endopeptidase 24.11 from bovine kidney and thermolysin cleave the Ala-Leu bond of the compound at a very fast rate (Table 3). […]
# (§2) Reactions were carried out in the presence of 10 mM CaCl2 at pH 7.5, 25° C. […] Values of kcat and Km were determined by Lineweaver-Burk plots.
# [2] = substrate: CC(C)C[C@H](NC(=O)[C@H](C)NC(=O)[C@H](C)NC(=O)CCC(=O)O)C(=O)Nc1ccc([N+](=O)[O-])cc1; test: as above; assay type: biochemical; details: other: (S) range 0.4-4.0 mM, 10 mM CaCl2, pH 7.5, 25° C., enzyme 3.0×10^-10 M
# Procedure: as §1, with “3). The Leu residue of the substrate interacts with the major hydrophobic specificity sites of the enzymes (S'1), whereas the two Ala residues interact with additional subsites (S1, S2), thereby contributing to catalysis and/or binding. Even the 4-nitroaniline leaving group probably interacts with the enzyme at subsite S'2. Previously reported assays of endopeptidase 24.11 usually utilized a hydrophobic Phe residue, but Leu seems preferable in reaching higher kcat values. The rapid hydrolysis of the Leu residue is also preferable for the present two-stage assay utilizing Steptomyces aminopeptidase, since this enzyme very rapidly hydrolyzes the product of the endopeptidase attack, Leu-NH-Np.” for “3).”
# as §2
Protein,Km [1],kcat [1],Km [2],kcat [2],kcat/Km [2]
B1,150 µM,120 s⁻¹,–,–,–
B2,–,–,4200 µM,1200 s⁻¹,0.29 M^-1 s^-1 × 10^-6
